Results from the DeepSol protein solubility set.

Test: soluble on expression in E. coli; label from the status in PepcDB or PDB records
For “MSEEHIAVTRFREYLRVNTEQPNPNYAACRDFLFKYADELGIARRSIETAPGVFLVIMTIPGSQPELPSIMLYSHTDVVPTFREHWTHDPYSAFKDEDGNIFARGAQDMKCVGVQQMEALRNLFAQGIRQWKRTIHLVWGPDEEIFGINGMKGFAKTDEFKKLNLGFSLDEGMPSDDDVYKVFYAERVAWWVKVTFPGNPGHGSQFMENTAMEKLERFLASARKFRNEQKVVLESNPNLTLGDVTTLNVNIVNGGVQFNVIPEKFEAYVDMRLTPHEDFNKIREMLDQWAKNAGEGVTYEFSQYSDQKPISAHTRDNSFWAAFEDSLNQENCKFEKGIMVASTDSRFVRYEGVNSINFSPMINTPFLPHDHNEYLNEKVFLRGLEIYQTIINNLGNV”, the “soluble on expression in E. coli” value was “not soluble”.
In the case of “MGHHHHHHGGHMSLNTISSLETTDLPAAYHIEQRAHAFPWSEKTFASNQGERYLNFQLTQNGKMAAFAITQVVLDEATLFNIAVDPDYQRQGLGRALLEHLIDELEKRGVATLWLEVRASNAAAIALYESLGFNEATIRRNYYPTTDGREDAIIMALPISMEGGS”, the “soluble on expression in E. coli” value is reported as “soluble”.
With “MGSDKIHHHHHHMNEDYQKTIEFHGHECPGVTIGYRVSKYVLDHYERSEDEQLVAIVENNSCSIDGIQQMLGCTFGKGNLKFKDNGKHVYTFYSRGNDKALRIYLKYNLAEKVGNFNKKFNEGTLTAEDEKQMFERRKEAIKHLMEAPEEELFDVQWVEIEEPKKARLYPSLTCENCGETFMEIKGRTIDGKIVCKECFQKLVH” the “soluble on expression in E. coli” value was “not soluble”.
With “MLIGVISDTHIPDRASEIPEAVFDAFRDVELILHAGDLTSPDILTELETLAPVECVQGNMDRHYGIETPRSRLFEIESFRVGLIHGEVYPRGDTQQLRYLGLELGADVLISGHTHQPFIRELEDMVLLNPGSPTVPRLTDPSVMVLRIDGEKLDAEIIRTGAPVCRSLNFRR” the “soluble on expression in E. coli” value was “not soluble”.
In the case of “GNIATTPGDVVYRNRMMELIQYKPATDTVHEIPIVLFPPWINKFYILDLKAQNSFIKWVTEQGFTIFVVSWINPDASYADVGMEDYIQDGFLTAIDEVKKICKVKQVNAVGYCIAGTTLSLTLSLMKQTGDKSVKSATFFTALTDFSDQGEFTPFLQDDFIDGIEEEVTREGVLRSWIMARTFSYLRSNDLIYKPAIQSYMLGETPPAFDLLYWNGDGANLPAKMAVQYLRGLCQRNEFAGEGFDLMGHTLHVRDVDVPVMAITCETDHIAAWKDCYRGVQKMGSRSKTFVVSESGHIAGIVNPPSKKKYGHYTNPDLKDD”, the “soluble on expression in E. coli” value is reported as “not soluble”.
For “MPTVRVKEGENPEYALRRFKRSCEKAGILTELRRREFYEKPTAERKRKQAAAVKRHLKKISRDVSSRRGVGHRRKKSTTLEHHHHHH”, the “soluble on expression in E. coli” value was “not soluble”.
In the case of “MARHHHHHHMPEGKIIKALSGFYYVLDESEDSDKVIQCRGRGIFRKNKITPLVGDYVVYQAENDKEGYLMEIKERTNELIRPPICNVDQAVLVFSAVQPSFSTALLDRFLVLVEANDIQPIICITKMDLIEDQDTEDTIQAYAEDYRNIGYDVYLTSSKDQDSLADIIPHFQDKTTVFAGQSGVGKSSLLNAISPELGLRTNEISEHLGRGKHTTRHVELIHTSGGLVADTPGFSSLEFTDIEEEELGYTFPDIREKSSSCKFRGCLHLKEPKCAVKQAVEDGELKQYRYDHYVEFMTEIKDRKPRY”, the “soluble on expression in E. coli” value is reported as “soluble”.
With “MGSDKIHHHHHHRGDKPVVWNHQDRRFEVIQQKKQRQRLDSYRRIVIDTTAPVTIRQGDTRQVTLHNFSSANNRLRARVSQGTLTVTGGSTTMNYVLGFGSDGGGINFSSNGDKRGVVITVPKTQRLDSIISKREGGELSLKKMTVKQISVKSTDDVSFNDVRVTKTLAVDTTAGDISGKQVKADRVDLTAEEGDVSLTQSHFKAVNNRVISGDGDVRLATTQLGGGHVVASDGDIQLHDNRLMGTLKATATDGDISARIAPAAGAKVTTTDSDDEIHVVGHSRSSGYWLRRAASAQYRLSTDDGDITVTQ” the “soluble on expression in E. coli” value was “not soluble”.
With “SLSSLEGQENSFTINSVDMKSLPDWTVQNGKNLTLQCFADVSTTSHVKPQHQMLFYKDDVLFYNISSMKSTESYFIPEVRIYDSGTYKCTVIVNNKEKTTAEYQLLVEGVPSPRVTLDKKEAIQGGIVRVNCSVPEEKAPIHFTIEKLELNEKMVKLKREKNSRDQNFVILEFPVEEQDRVLSFRCQARIISGIHMQTSESTKSELVTVTESFSTPKFHISPTGMIMEGAQLHIKCTIQVTHLAQEFPEIIIQKDKAIVAHNRHGNKAVYSVMAMVEHSGNYTCKVESSRISKVSSIVVNITELFSKPELESSFTHLDQGERLNLSCSIPGAPPANFTIQKEDTIVSQTQDFTKIASKSDSGTYICTAGIDKVVKKSNTVQIVVCEMLS” the “soluble on expression in E. coli” value was “soluble”.
With “MAAKKRGLGRGLDALLGGSSPAKLQEEAVQADRRELQQIPLDLMQRGKYQPRRDMDPQALEELAQSIKAQGVMQPIVVRPIANGRYEIIAGERRWRASQQAGLEKIPALVRDVPDEAAIAMALIENIQREDLNPIEEAAALQRLQQEFQLTQQQVAEAVGKSRATITNLLRLIGLPEEIKTLLSHGDLEMGHARALLGLPAERQVEGARHVVAHGLTVRQTEALVRQWTHAPGKPAGPVKSDPDIARLEQRLAERLGASVQIRHGQKGKGQLVIRYSSLDELQGVLAHIR” the “soluble on expression in E. coli” value was “not soluble”.
With “MSLEKQMNCNLKELKEFIDNEMLLILGQMDKPSLIFDHLYLGSEWNASNLEELQGSGVDYILNVTREIDNFFPGLFAYHNIRVYDEETTDLLAHWNEAYHFINKAKRNHSKCLVHCKMGVSRSASTVIAYAMKEFGWPLEKAYNYVKQKRSITRPNAGFMRQLSEYEGILDASKQRHNKLWRQQTDSEGHHHHHH” the “soluble on expression in E. coli” value was “not soluble”.
For “MGSDKIHHHHHHMETDMPADMIQPLCEIDDLRIGFHGHDGALTEAVRGLSLTLHRGERLGIVGESGSGKSLTGRALLGLLPPAAQYRAKAMTFDGQDLLSMSARKRRQLCGQQMGMILQDPKYSLNPVMTVAQQMREVFDLHGPKLGRREMREQIIAALAAVHIRNPERVADAYPHELSGGMGQRVMIAMMVSSGPRLLVADEPTSALDVLVSMQVLGILDEMIEKHHTGLIFISHDLPLVMSFCDRVVVMFAGRVVETCAARDLVHARHPYTRGLLAASPPLIDPPDQLPVLKPDPAWLTQPAGASA”, the “soluble on expression in E. coli” value was “not soluble”.
In the case of “MGLIKAATSSVGGGLADQWLEVIEPDNMGDTTVMTKGVFVRKDDKRGSNRKGTDDVLTDGSVVHVYPNMMMLLVDGGKIIDYTAEEGYYTVKNDSAPSMFNGSLKDAIAETFSRFKFGGVTPQKQQVFYINLQEIKGIKFGTPAPLNYFDNFYNAELFLRAHGNYSIKITDPLLFYTNAIPKNQTQVDINDINEQYLAEFITALQAAINQMSADGQRISYVPSKSVELSKYMQTALDEDWRTNRGMEIVSVAVASISYTDDSTKLINMRNEGAMLSDPGVREGYVQGSLARGMEAAGKNEGGAMSGFMGVGMGMNANGNYFAQASQTNQQQMQEKQNQQNAQGATDTWTCPQCGTENTGKFCSNCGTPKPTNEKPKLEMKCSECSEIVDLSNGIPKFCPHCGKPFQGVPLLEHHHHHH”, the “soluble on expression in E. coli” value is reported as “soluble”.
For “MKERESVQDQSDPSETDSEELLQLDGKSISEWVSEIDAISKEVEAELVSRDIGCHLVQVLEAVNTVLFDLRGFKRTSITLDPENSYLHSVLNCRCSTAFLISVIYIEVCKRLNVPIVGSPVGEDFLIWPKTEYPEELFKATSGQSLFSIVNGRCVDDPGSMASDLTAKSLQDLDMATNRDIIGIALANLIRLHWRRASKSSHGLMLTSPLSQLNNISSSNFPLLRPQDLRLAIAAAERLLILQPHNWALRRDLGMMLYYDRQYGEAVQELSICMAFAPPEEEAVLEPFVERLHLLRLISSLKPLGSDRLTVP”, the “soluble on expression in E. coli” value was “soluble”.
With “MAHHHHHHMMRRMWVPTFSAQQQHLHHAMGLKMLTYASTPSGSGVTSAASNEEMNLHDAAAIAPGPYRRVGNIFIVHCDDHPFKHSWEVNRMLRELRLEFKGQTTIVPDIPQVRKRIWRVRHIVKVDVLDLDEAKALIGVPEHISFTDLASQLPPSFGRVKAVPSPVIRSKMNFMKLRRMRLRDVLHRDALELRLLELKRSAMKNAEQQKHAQK” the “soluble on expression in E. coli” value was “not soluble”.
For “MLTEEKVLAALNRVKDRDLNKSIVETGGIRELKISGANVSVKVALAQTGTREQMEIQQEIVNVLKGEGAESVGLRFDQLDETEIEKLGGLPKQEFHGPPLLHPNTSTTFIAVTSGKGGVGKSTVSVNLATTLARLGKKVGIIDADIYGFSVPDMMGIEERPKVVGEQIFPVERFGVKVISMGFFVEDNAPVIWRGPMLGKMLNNFFAEVEWGDLDYLILDLPPGTGDVALDIHTMLPHSKEILVTTPHATAAFVAARAGAMALKTHHEIIGVVENMAYFESKITGEKEYVFGQGGGERLAEELKTEVLGRIPLGQPEIDEDDFAPSVYGATHPIGEIYTAIAKRVIDKTTLEHHHHHH”, the “soluble on expression in E. coli” value was “soluble”.
In the case of “MAHHHHHHMQFGIKVEPYGYDKLVWLETDALKVGLTNYAASVASIQVYHPADNKWIEVNCGYPKNPEEAYADPDYMGATVGRCAGRVAGGVFTLDGVKYYTQKNRGENTCHCGDDAYHKKHWGMKLIETANVIGVRFNYTSPHMESGFPGEVKNYCTFTIDRSKPNALKTIYDSYITDNSPCDASPINVFSHTSFNLNGIPGQQDGEKNWVQPESVRNHWLRVPASRVAEADRMAIPTGEFLSVEGTGLDFRQGRVIGDCIDDVALLDRDPCGYDHPLAIDGWEKGKLMLHAEAKSPVTNICMKVYSTFPCMWVYTANNKPLPASGGPGQRYARWTGLLVGPQNFSDVANHYPKYPSCIVRRGERQYSETTINEFTIEQ”, the “soluble on expression in E. coli” value is reported as “soluble”.
In the case of “SASHQEQSYKAGETRGKAQEKTGEAMGTMGDKTQAAKDKTQETAQSAQQKAHETAQSAKDKTSQAAQTTQERAQESKDKTGSYMSETGEAIKNKAHDAAEYTKETAEAGKEKTSGILGQTGEQVKQMAMGATDAVKHTLGLRTDEGNKEHVSSAPSTTTTTTTRETQRK”, the “soluble on expression in E. coli” value is reported as “soluble”.
In the case of “MKIVTTVQEMQHITKELRASGKSIGFVPTMGYLHEGHATLLRKAREENEIVVLSVFVNPLQFGPNEDLDRYPRDIDRDENVAKENGVDYLFYPSVEEMYPAEQTTTVEVVKRTDVLCGKQRPGHFAGVATVLMKLFNITLPTRAYFGMKDAQQVAVIEGFVADFNIPVIIVPVDIVREEDGLAKSSRNVYLSQKERKEAPHLYRSLCMAKERIEAGERNAEIITTLVKEYIETYTKGTVDYADLYAYPSLQVVDQIEGRIILAIAVKFENVRLIDNITLTVK”, the “soluble on expression in E. coli” value is reported as “not soluble”.
In the case of “AEMKTDAATLAQEAGNFERISGDLKTQIDQVESTAGSLQGQWRGAAGTAAQAAVVRFQEAANKQKQELDEISTNIRQAGVQYSRADEEQQQALSSQMGF”, the “soluble on expression in E. coli” value is reported as “soluble”.
For “MRISTLQGQYQCIIIDPPWFYRLRSKDKTHRNRIPYQPMRTPEILALPIPDLCDAGGCVLWLWFTNNHMIEAAQCLQRWGFDLKTILTWGKVTKDGTKTHLGVGHWLRNSTEHCALAVRGNVKAFAGQTSTTGGTPTLTNQSTILHSPRREHSRKPPEFFELVEKLCPDMTKLEIFARESRDGWDCWGDQADLFDASDEEILVKAEKVLLLEHHHHHH”, the “soluble on expression in E. coli” value was “not soluble”.
For “MGTTSSQSKTLYQKLYDAHIVHEAPNETPLLYIDRHLVHEVTSPQAFDGLRAMGRPVRQPGKTFATMDHNVSTQTKDINASGEMARIQMQELIKNCAEFGVSLYDLNHPFQGIVHVIGPEQGMTLPGMTIVCGDSHTATHGAFGSLAFGIGTSEVEHVLATQTLKQGRAKTMRIEVNGTVGAGITAKDIVLAIIGKTGSAGGTGHVVEFCGSAIEALSMEGRMTLCNMAIEMGAKAGLVAPDDTTFAYLKGRQFAPTGEQWEQGVAYWRTLKSDADAQFDTIVTLDAADIAPQVTWGTNPGQVIAVNQIIPAPESFSDPVERASAEKALAYMDLRPGIKLTEVAIDKVFIGSCTNSRIEDLRAAAAIAQGRKVAKGVQAIVVPGSGPVKAQAEAEGLDKIFIAAGFEWRLPGCSMCLAMNNDRLEPGERCASTSNRNFEGRQGRGGRTHLVSPAMAAAAAVSGHFADVRELSATTH”, the “soluble on expression in E. coli” value was “not soluble”.
